Reference: article PMC10344929, “Crosstalk between regulatory elements in disordered TRPV4 N-terminus modulates lipid-dependent channel activity” (Nature Communications, 2023)

Molecular target: T1, Gallus gallus TRPV4 isolated ankyrin repeat domain (residues 135-382) (Gallus gallus, UniProt A0A1D5PXA5 135-382)
T1 construct: TRPV4, Gallus gallus, ankyrin repeat domain, residues 135-382; Made from the NTD vector by Gibson deletion; also called ARD; TRPV4 ARD; source: E. coli BL21-Gold(DE3), purified (Ni-NTA, Ulp-1 cleavage, reverse Ni-NTA, SEC); not shown: His6SUMO, N-terminal, cleaved
Test: cross-linking; DSS-H12/D12 cross-linking mass spectrometry; isolated IDR and ARD mixed 1:1; 1.5 nmol DSS per ug protein, 2 h at 4 °C, 1 mg/mL protein, 20 mM HEPES pH 7, 300 mM NaCl
Conditions: both partners purified

T1 sequence (A0A1D5PXA5 135-382): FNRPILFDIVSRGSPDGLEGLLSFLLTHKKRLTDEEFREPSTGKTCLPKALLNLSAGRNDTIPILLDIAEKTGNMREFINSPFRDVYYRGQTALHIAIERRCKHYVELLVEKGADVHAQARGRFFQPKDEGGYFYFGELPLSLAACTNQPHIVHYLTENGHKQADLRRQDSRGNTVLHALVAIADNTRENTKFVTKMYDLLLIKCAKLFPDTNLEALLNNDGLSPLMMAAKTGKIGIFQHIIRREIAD

binding result: binds
B1: Gallus gallus TRPV4 isolated intrinsically disordered region (residues 2-134) (domain or fragment, UniProt A0A1D5PXA5 2-134, looked up)
chain: ADPEDPRDAGDVLGDDSFPLSSLANLFEVEDTPSPAEPSRGPPGAVDGKQNLRMKFHGAFRKGPPKPMELLESTIYESSVVPAPKKAPMDSLFDYGTYRQHPSENKRWRRRVVEKPVAGTKGPAPNPPPILKV
notes: TRPV4, Gallus gallus, N-terminal intrinsically disordered region, residues 2-134; Made from the NTD vector by Gibson deletion; also called IDR; TRPV4 IDR; source: E. coli BL21-Gold(DE3), purified (Ni-NTA, Ulp-1 cleavage, reverse Ni-NTA, SEC); not shown: His6SUMO, N-terminal, cleaved
